Assay results published in the RNAGym collection of RNA variant scans (doi:10.1093/molbev/msab373).

B1: Azoarcus group I ribozyme (parent)
chain: GUGCCUUGCGCCGGGAAACCACGCAAGGGAUGGUGUCAAAUUCGGCGAAACCUAAGCGCCCGCCCGGGCGUAUGGCAACGCCGAGCCAAGCUUCGGCGCCUGCGCCGAUGAAGGUGUAGAGACUAGACGGCACCCACCUAAGGCAAACGCUAUGGUGAAGGCAUAGUCCAGGGAGUGGCGAAAGUCACACAAACCGG

Variants of: B1
Assay: reverse-splicing fitness (ratio to wild type); higher = more active; in vitro selection; Mg2+ level not given
Summary of the method: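 An in vitro group I ribozyme library with randomized positions was T7-transcribed and gel-purified. In triplicate, 10 pmol RNA in EPPS pH 7.5 was reacted with 50 pmoles of a 30-nt RNA substrate for 1 h at 37 °C across several added MgCl2 levels (1–48 mM), then stopped with EDTA. Products were reverse transcribed from a substrate-complementary primer, PCR-amplified and sequenced (HiSeq 4000). Fitness is a variant's read proportion after selection over that before, normalised to wild type.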

Row | Variant | reverse-splicing fitness
1 | C82A A111U A120C A145C C150U U176C | 0.0198
2 | C82A A111U A120C A145C C150U U176G | 0.00643
3 | C82A A111U A120C A145C C150U U176A | 0.0118
4 | C82A A111U A120C A145G C150G C169G U176G | 0.00673
5 | C82A A111U A120C A145G C150G C169G U176A | 0.0112
6 | C82A A111U A120C A145G C150G C169G U176C | 0.0155
7 | C82A A111U A120C A145G C150U C169G U176C | 0.0201
8 | C82A A111U A120C A145G C150U C169G U176A | 0.0138
9 | C82A A111U A120C A145G C150U C169G U176G | 0.00639
10 | C82A A111U A120C A145G C169U U176G | 0.00584
11 | C82A A111U A120C A145G C169U U176C | 0.0156
12 | C82A A111U A120C A145G C169U U176A | 0.0178
13 | C82A A111U A120C A145G C150G C169A U176G | 0.00887
14 | C82A A111U A120C A145G C150G C169A U176A | 0.0164
15 | C82A A111U A120C A145G C150G C169A U176C | 0.016
16 | C82A A111U A120C A145G C150A C169U U176G | 0.00879
17 | C82A A111U A120C A145G C150A C169U U176C | 0.0176
18 | C82A A111U A120C A145G C150A C169U U176A | 0.019
19 | C82A A111U A120C A145U C150A C169U U176C | 0.0133
20 | C82A A111U A120C A145U C150A C169U U176A | 0.0174
21 | C82A A111U A120C A145U C150A C169U U176G | 0.00856

Row | Variant | reverse-splicing fitness
22 | C82A A111U A120C A145C C169G U176C | 0.0325
23 | C82A A111U A120C A145C C169G U176A | 0.0334
24 | C82A A111U A120C A145C C169G U176G | 0.00816
25 | C82A A111U A120C A145G C169A U176A | 0.0312
26 | C82A A111U A120C A145G C169A U176C | 0.0332
27 | C82A A111U A120C A145G C169A U176G | 0.00699
28 | C82A A111U A120C A145C C150U C169G | 0.00912
29 | C82A A111U A120C A145C C150U C169U | 0.0105
30 | C82A A111U A120C A145C C150U C169A | 0.00907
31 | C82A A111U A120C A145U C150A C169U | 0.0109
32 | C82A A111U A120C A145U C150A C169G | 0.00953
33 | C82A A111U A120C A145U C150A C169A | 0.0109
34 | C82A A111U A120C A145C C169U | 0.0112
35 | C82A A111U A120C A145C C169G | 0.01
36 | C82A A111U A120C A145C C169A | 0.0103
37 | C82A A111U A120C A145G C150A C169U | 0.0104
38 | C82A A111U A120C A145G C150A C169G | 0.00972
39 | C82A A111U A120C A145G C150A C169A | 0.0122
40 | C82A A111U A120C A145C C150G C169U | 0.00963
41 | C82A A111U A120C A145C C150G C169G | 0.00743
42 | C82A A111U A120C A145C C150G C169A | 0.00897

Row | Variant | reverse-splicing fitness
43 | C82A A111U A120C A145G C150A U176G | 0.00997
44 | C82A A111U A120C A145G C150A U176C | 0.0241
45 | C82A A111U A120C A145G C150A U176A | 0.0105
46 | C82A A111U A120C A145C C150A U176A | 0.0115
47 | C82A A111U A120C A145C C150A U176G | 0.00578
48 | C82A A111U A120C A145C C150A U176C | 0.0167
49 | C82A A111U A120C A145C C150U C169U U176A | 0.0144
50 | C82A A111U A120C A145C C150U C169U U176C | 0.0133
51 | C82A A111U A120C A145C C150U C169U U176G | 0.00618
52 | C82A A111U A120C A145U C150U U176A | 0.0138
53 | C82A A111U A120C A145U C150U U176G | 0.00684
54 | C82A A111U A120C A145U C150U U176C | 0.0191
55 | C82A A111U A120C A145G C150U | 0.0255
56 | C82A A111U A120C A145G C150A | 0.013
57 | C82A A111U A120C A145G C150G | 0.0101
58 | C82A A111U A120C A145C C150U C169A U176A | 0.0182
59 | C82A A111U A120C A145C C150U C169A U176G | 0.00873
60 | C82A A111U A120C A145C C150U C169A U176C | 0.0162
61 | C82A A111U A120C A145U C150G C169U | 0.01
62 | C82A A111U A120C A145U C150G C169A | 0.00962
63 | C82A A111U A120C A145U C150G C169G | 0.00869

Row | Variant | reverse-splicing fitness
64 | C82A A111U A120C A145C C150A C169U U176G | 0.00621
65 | C82A A111U A120C A145G C169A | 0.0113
66 | C82A A111U A120C A145G C169G | 0.0103
67 | C82A A111U A120C A145G C169U | 0.0142
68 | C82A A111U A120C A145G C150U C169U U176G | 0.00781
69 | C82A A111U A120C A145G C150U C169U U176C | 0.0148
70 | C82A A111U A120C A145G C150U C169U U176A | 0.0152
71 | C82A A111U A120C A145G C169G U176C | 0.0355
72 | C82A A111U A120C A145G C169G U176A | 0.0259
73 | C82A A111U A120C A145G C169G U176G | 0.00647
74 | C82A A111U A120C A145G C150U U176A | 0.0126
75 | C82A A111U A120C A145G C150U U176C | 0.0246
76 | C82A A111U A120C A145G C150U U176G | 0.00822
77 | C82A A111U A120C A145C C150G | 0.00984
78 | C82A A111U A120C A145C C150U | 0.0149
79 | C82A A111U A120C A145G C150U C169G | 0.00957
80 | C82A A111U A120C A145G C150U C169A | 0.0113
81 | C82A A111U A120C A145G C150U C169U | 0.0127
82 | C82A A111U A120C A145U C150A | 0.0107
83 | C82A A111U A120C A145U C150G | 0.00883
84 | C82A A111U A120C A145U C150U | 0.0216
